Results on two molecules are retold here after PMC11604724 (MedComm, 2024).

For assay [1], the target named is extracellular domain of SARS‐CoV‐2 (WT) spike (S‐ECD) for cryo-EM (SARS-CoV-2 WT, proline mutation at residue 986 | proline mutation at residue 987, N-linked glycans (Asn17, Asn122, Asn165 and others)). Briefly: cryo-EM structure. The following applies: both partners purified.
In assay [2] the target is SARS‐CoV‐2 WT spike trimer protein (SARS-CoV-2, UniProt P0DTC2). Briefly: BLI. The note with it: both partners purified.

B1: mAb 3711 (antibody, V domains shown)
VH: EVQLVESGGGLVKPGRSLRLSCAASGFTFSDYYMSWIRQAPGKGLEWVSYISSSGSTIYYADSVRGRFTISRDNAKNSLYLQMNTLRAEDTAVYYCARGGWELRSLAGGYYGMDVWGQGTTVTVSS
VL: DIVMTQTPFTLSASVGDRVTITCRASQGIRNDLGWYQQKPGKAPKCLIYAASSLLSGVPSRFSGSGSGTEFTLTISSLQPEDFATYYCLQHNSYPWTFGQGTKLEIK
In the case of B1, the “stoichiometry N” value in assay [1] was found to be 3 Fabs per spike trimer.

B2: mAb 26434 (antibody, V domains shown)
VH: QVQLQQSGAEVKKPGASVKVSCKASGYTFSRYGISWVRQAPGQGLEWMGWISAYKGNTNYAQKFQGRVTMTTDTSTSTAYMELRSLRSDDTAVYYCARSPPDFLGWFDPWGQGTLVTVSS
VL: LPVLTQPPSVSVSPGQTASITCSGDKLGDKFTCWYQQKPGQSPVQVIYQDTHRPSGIPERFSGSNSGNTATLTISGTQAVDEADYYCQAWDSSTVIFGGGTKLTVL
B2 yielded a Kd in assay [2] of 670 nM.

The term stoichiometry N denotes a count of units in the complex or per binding partner. As usually defined, the Kd is the concentration at which binding is half-saturated. A low value points to a tighter complex.
